Biological target: T1, Epidermal Growth Factor Receptor (EGFR) protein (UniProt P00533 25-1210, limits assumed)
T1 construct: Bought protein; also called EGFR proteins; antigen EGFR
Assay: SPR, Biacore3000, CM5 chip, HBS-EP pH 7.4, mean of three runs
Method: The binding affinity between antibody and EGFR was assayed with Biacore3000 equipment. The EGFR proteins diluted with 10 mmol/L NaAc and having different pH (4.0, 4.5, 5.0 and 5.5) were formulated, and were pre-concentrated on CM5 chip to select the NaAc diluted protein with optimum pH. […] The binding affinities were computed with the software attached by Biacore3000.

Kd: 2.75 nM
B1: anti-EGFR humanized antibody L4-H3 (antibody, human IgG1, kappa, V domains shown)
VH: VKLLEQSGAEVKKPGASVKVSCKASGFSLTNYGVHWVRQAPGQRLEWMGVIWSGGNTDYNTPFTSRVTITRDTSATTAYMGLSSLRPEDTAVYYCARALTYYDYEFAYWGQGTLVTVSS
VL: ELVMTQSPSSLSASVGDRVNIACRASQSIGTNIHWYQQKPGKAPRLLIKYASESISGVPSRFSGSGSGTDFTLTISSLQPEDFAIYYCQQNNNWPTTFGGGTKVEIKR
notes: also called antibody of the present invention; the antibody

— patent publication US20130330362A1 (HEFEI TAIRUI BIOTECHNOLOGY, published 2013)
